Measured values reported in patent US7067474B1, “Agents for treating human illnesses based on β-catenin, and the production and use thereof” (Max-Delbruck-Centrum fur Molekulare Medizin, priority 1998, dated 2006).

T1: APC (15 amino acid repeats) (Homo sapiens, UniProt P25054)
T1 construct: of human APC for the amino acids His1012–Glu1215 (APC 15 amino acid repeats); expressed in transfected cells; host or cells: yeast (two-hybrid, Matchmaker, Clontech)
T1 sequence (P25054 1006-1209 limits assumed): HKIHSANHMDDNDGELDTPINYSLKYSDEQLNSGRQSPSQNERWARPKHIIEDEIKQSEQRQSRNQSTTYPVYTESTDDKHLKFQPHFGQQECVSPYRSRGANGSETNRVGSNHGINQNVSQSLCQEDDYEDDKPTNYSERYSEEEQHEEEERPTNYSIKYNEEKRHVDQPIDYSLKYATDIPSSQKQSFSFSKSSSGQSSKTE

T2: APC (20 amino acid repeats) (Homo sapiens, UniProt P25054)
T2 construct: for the amino acids Ser1259Asp 1400 (APC 20 amino acid repeats); expressed in transfected cells; host or cells: yeast (two-hybrid, Matchmaker, Clontech)
T2 sequence (P25054 1253-1394 limits assumed): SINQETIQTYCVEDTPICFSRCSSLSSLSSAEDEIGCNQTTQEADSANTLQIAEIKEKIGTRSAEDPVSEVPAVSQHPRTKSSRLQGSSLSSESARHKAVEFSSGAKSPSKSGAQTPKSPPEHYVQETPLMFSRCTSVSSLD

B1: Lys 435: human β-catenin mutant, Lys 435 substituted by alanine (arm 8) (protein)
chain: LHNLSHHREGLLAIFKSGGIPALVKMLGSPVDSVLFYAITTLHNLLLHQEGAKMAVRLAGGLQKMVALLNKTNVKFLAITTDCLQILAYGNQESKLIILASGGPQALVNIMRTYTYEKLLWTTSRVLKVLSVCSSNKPAIVEAGGMQALGLHLTDPSQRLVQNCLWTLRNLSDAATKQEGMEGLLGTLVQLLGSDDINVVTCAAGILSNLTCNNYKNAMMVCQVGGIEALVRTVLRAGDREDITEPAICALRHLTSRHQEAEMAQNAVRLHYGLPVVVKLLHPPSHWPLIKATVGLIRNLALCPANHAPLREQGAIPRLVQLLVRAHQDTQRRTSMGGTQQQFVEGVRMEEIVEGCTGALHILARDVHNRIVIRGLNTIPLFVQLLYSPIENIQRVAAGVLCELAQDKEAAEAIEAEGATAPLTELLHSRNEGVATYAAAVLFRMSEDKPQDYKKRLSVELTSSLFRTEPMAWNETADLGLDIGAQGEPLGYRQDDPSYRSFHSGGYGQDALGMDPMMEHEMGGHHPGADYPVDGLPDLGHAQDLMDGLPPGDSNQLAWFDTDL
modifications: left off: large carriers; small tags and cut ends
B2: Arg 386: human β-catenin mutant, Arg 386 substituted by alanine (arm 6) (protein)
chain: LHNLSHHREGLLAIFKSGGIPALVKMLGSPVDSVLFYAITTLHNLLLHQEGAKMAVRLAGGLQKMVALLNKTNVKFLAITTDCLQILAYGNQESKLIILASGGPQALVNIMRTYTYEKLLWTTSRVLKVLSVCSSNKPAIVEAGGMQALGLHLTDPSQRLVQNCLWTLANLSDAATKQEGMEGLLGTLVQLLGSDDINVVTCAAGILSNLTCNNYKNKMMVCQVGGIEALVRTVLRAGDREDITEPAICALRHLTSRHQEAEMAQNAVRLHYGLPVVVKLLHPPSHWPLIKATVGLIRNLALCPANHAPLREQGAIPRLVQLLVRAHQDTQRRTSMGGTQQQFVEGVRMEEIVEGCTGALHILARDVHNRIVIRGLNTIPLFVQLLYSPIENIQRVAAGVLCELAQDKEAAEAIEAEGATAPLTELLHSRNEGVATYAAAVLFRMSEDKPQDYKKRLSVELTSSLFRTEPMAWNETADLGLDIGAQGEPLGYRQDDPSYRSFHSGGYGQDALGMDPMMEHEMGGHHPGADYPVDGLPDLGHAQDLMDGLPPGDSNQLAWFDTDL
modifications: left off: large carriers; small tags and cut ends

What was measured:
Type in all cases: binding
conductin = biological target: T3, conductin (Mus musculus, UniProt O88566); assay: yeast 2-hybrid: interaction of β-catenin mutants with conductin; conditions: yeast 2-hybrid, alanine mutants
T3 construct: conductin for the amino acids Ala342–ARG465; expressed in transfected cells; host or cells: yeast (two-hybrid, Matchmaker, Clontech)
Protocol: (§1) The mutagenesis of β-catenin in the armadillo repeats 3–8 was carried out by means of the “mutagenesis kit” of the company Clontech according to the producer's record and the mutants were checked by sequencing (FIG. 5). In all mutants the original amino acid was substituted by alanine. For analyzing the interactions the cDNA of human β-catenin (armadillo repeat 3 up to the C-terminal end of the protein) coding for the amino acids Leu218–Leu7 μl or its mutants was cloned into the fusion vector for the activation domain of Gal-4 (pGAD424, Clontech). The cDNA for the binding domains of the interaction partners was cloned into the Lex-A fusion vector BTM 116. To this end, the cDNA of LEF-1 for the amino acids 1–99, conductin for the amino acids Ala342–ARG465; of human APC for the amino acids His1012–Glu1215 (APC 15 amino acid repeats) and for the amino acids Ser1259Asp 1400 (APC 20 amino acid repeats) and E-cadherin for the amino acids Gin773–Asp884 (cytoplasmatic domain) were amplified with the respective primers PCR. The interaction of the Lex-A hybrids with β-catenin and its mutants was quantified by means of the β-galactosidase reporter activity in the yeast 2-hybrid system (report: “Matchmaker”. Clontech) (Tab. 2 and FIG. 6).

[1] = biological target: T1, APC (15 amino acid repeats); assay: yeast 2-hybrid: interaction of β-catenin mutants with APC 15 amino acid repeats; conditions: for Interaction With APC-15, share of wild type β-catenin interaction: yeast 2-hybrid, alanine mutants
Protocol: as §1

LEF-1 = biological target: T4, LEF-1 (Mus musculus, UniProt P27782); assay: yeast 2-hybrid: interaction of β-catenin mutants with LEF-1
T4 construct: the cDNA of LEF-1 for the amino acids 1–99; expressed in transfected cells; host or cells: yeast (two-hybrid, Matchmaker, Clontech)
Protocol: as §1

[2] = biological target: T2, APC (20 amino acid repeats); assay: yeast 2-hybrid: interaction of β-catenin mutants with APC 20 amino acid repeats; conditions: yeast 2-hybrid, alanine mutants
Protocol: as §1

E-cadherin = biological target: T5, E-cadherin (Mus musculus, UniProt P09803); assay: yeast 2-hybrid: interaction of β-catenin mutants with E-cadherin; conditions: alanine mutants
T5 construct: E-cadherin for the amino acids Gin773–Asp884 (cytoplasmatic domain); expressed in transfected cells; host or cells: yeast (two-hybrid, Matchmaker, Clontech)
Protocol: as §1

T5 sequence (P09803 773-884): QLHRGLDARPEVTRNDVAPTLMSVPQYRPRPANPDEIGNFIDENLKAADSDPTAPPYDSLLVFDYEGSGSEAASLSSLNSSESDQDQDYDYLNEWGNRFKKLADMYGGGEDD
T4 sequence (P27782 1-99): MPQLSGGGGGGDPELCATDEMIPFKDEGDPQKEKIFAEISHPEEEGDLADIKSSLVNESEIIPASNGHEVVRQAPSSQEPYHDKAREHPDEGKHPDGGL
T3 sequence (O88566 343-465 limits assumed): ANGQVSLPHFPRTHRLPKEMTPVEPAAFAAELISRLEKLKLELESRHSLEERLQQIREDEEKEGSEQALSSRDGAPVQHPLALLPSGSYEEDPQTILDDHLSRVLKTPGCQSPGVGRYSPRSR

Molecule | Interaction With Conductin, share of wild type β-catenin interaction (conductin) [%] | Interaction With APC-15, share of wild type β-catenin interaction [1] [%] | Interaction With LEF-1, share of wild type β-catenin interaction (LEF-1; yeast 2-hybrid, alanine mutants) | interaction with LEF-1/TCF-4 (LEF-1; β-catenin mutation, in words) | Interaction With APC-20, share of wild type β-catenin interaction [2] | Interaction With E-Cadherin, share of wild type β-catenin interaction (E-cadherin) | interaction with APC 15aa ([1]; β-catenin mutation, in words)
B1 | 42 | 30 | — (Interactions marked by — correspond to 60–100% of the wild type interaction) | blocking the interaction | — (Interactions marked by — correspond to 60–100% of the wild type interaction) | — (Interactions marked by — correspond to 60–100% of the wild type interaction) | 
B2 | 45 | 12 |  |  |  | — (Interactions marked by — correspond to 60–100% of the wild type interaction) | no interaction with APC 15aa
